From the supplement of paper PMC10567573

B1: KCNAB2 (parent)
chain: YVDVVFANRPDPNTPMEETVRAMT

Variants of: B1
Experiment: protein stability index of a GFP-peptide fusion (GPS, HEK-293T) (PSI 1-6); higher = more stable
Conditions: c terminus: a fixed tail appended
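Also: lentivirally expressed fusions sorted by FACS into six bins by GFP to DsRed ratio, PSI derived from sequencing read proportions per bin multiplied by bin number.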

First: YVDVVPANRPDPNTPMEETVRAMT [F6P]
Second: YVDVVMANRPDPNTPMEETVRAMT [F6M]
The protein stability index of the first is lower: 2.09 for the first, 2.3 for the second.

First: YVDVVWANRPDPNTPMEETVRAMT [F6W]
Second: YVDVVKANRPDPNTPMEETVRAMT [F6K]
The protein stability index of the first is higher: 3.77 for the first, 2.66 for the second.

Compared with YVDVVFANRPDPNTPMEETVRADT [M23D], YVDVVFANRPDPNTPMEETVRAET [M23E] is higher in protein stability index: 1.61 for the first, 1.86 for the second.

Compared with YVDVVFANRPDPNTPMEETVRALT [M23L], YVDVVFANRPDPNTPMEETVRANT [M23N] is lower in protein stability index: 2.57 for the first, 1.8 for the second.

First: YVDVVFANRPDPNTPMEETVRAKT [M23K]
Second: YVDVVFANRPDPNTPMEETVRAYT [M23Y]
The protein stability index of the first is lower: 1.82 for the first, 2.13 for the second.

First: YVDVVFANRPDPNTPMEETVRAQT [M23Q]
Second: YVDVVFANRPDPNTPMEETVRAST [M23S]
The protein stability index of the first is lower: 1.41 for the first, 1.58 for the second.

First: YVDVVFANRPDPNTPMEETVRAFT [M23F]
Second: YVDVVFANRPDPNTPMEETVRACT [M23C]
The protein stability index of the first is lower: 2.03 for the first, 2.04 for the second.

Compared with YVDVVFANRPDPNTPMEETVRAAT [M23A], YVDVVFANRPWPNTPMEETVRAMT [D11W] is lower in protein stability index: 2.16 for the first, 1.94 for the second.

Compared with YVDVVFANRPIPNTPMEETVRAMT [D11I], YVDVVFANRPSPNTPMEETVRAMT [D11S] is lower in protein stability index: 2.2 for the first, 1.39 for the second.

First: YVDVVFANRPVPNTPMEETVRAMT [D11V]
Second: YVDVVFANRPEPNTPMEETVRAMT [D11E]
The protein stability index of the first is higher: 2.53 for the first, 1.6 for the second.

Going from YVDVVFANRPCPNTPMEETVRAMT [D11C] to YVDVVFANRPGPNTPMEETVRAMT [D11G], the protein stability index rises from 1.77 to 2.19.

Compared with YVDVVFANRPDPNTPMEETVRAMH [T24H], YVDVVFANRPDPNTPMEETVRAMQ [T24Q] is higher in protein stability index: 1.74 for the first, 2.09 for the second.

First: YVDVVFANRPDPNTPMEETVRAMD [T24D]
Second: YVDVVFANRPDPNTPMEETVRAML [T24L]
The protein stability index of the first is lower: 1.46 for the first, 1.8 for the second.

First: YVDVVFANRPDPNTPMEETVRAME [T24E]
Second: YVDVVFANRPDPNTPMEETVRAMR [T24R]
The protein stability index of the first is higher: 1.86 for the first, 1.78 for the second.

Going from YVDVVFANRPDPNTPMEETVRAMN [T24N] to YVDVVFANRPDPVTPMEETVRAMT [N13V], the protein stability index rises from 1.5 to 2.44.

First: YVDVVFANRPDPETPMEETVRAMT [N13E]
Second: YVDVVFANRPDPGTPMEETVRAMT [N13G]
The protein stability index of the first is higher: 2.5 for the first, 2.14 for the second.

Compared with YVDVVFANRPDPYTPMEETVRAMT [N13Y], YVDVVFANRPDPQTPMEETVRAMT [N13Q] is lower in protein stability index: 2.31 for the first, 2.11 for the second.

First: YVDVVFANRPDPNTPMQETVRAMT [E17Q]
Second: YVDVVFANRPDPNTPMGETVRAMT [E17G]
The protein stability index of the first is lower: 2.14 for the first, 2.72 for the second.

Compared with YVDVVFANRPDPNTPMAETVRAMT [E17A], YVDVVFANRPDPNTPMCETVRAMT [E17C] is lower in protein stability index: 1.86 for the first, 1.62 for the second.

Going from YVDVVFANRPDPNTPMSETVRAMT [E17S] to YVDVVFANRPDPNTPMMETVRAMT [E17M], the protein stability index rises from 1.2 to 2.65.

Going from YVDVVFANRPDPNTPMWETVRAMT [E17W] to YVDVVFANRPDPNTPMHETVRAMT [E17H], the protein stability index falls from 3.15 to 2.85.

Compared with YVDVVFANRPDPNCPMEETVRAMT [T14C], YVDVVFANRPDPNGPMEETVRAMT [T14G] is higher in protein stability index: 1.99 for the first, 2.04 for the second.

Compared with YVDVVFANRPDPNMPMEETVRAMT [T14M], YVDVVFANRPDPNRPMEETVRAMT [T14R] is lower in protein stability index: 2.65 for the first, 2.23 for the second.

Compared with YVDVVFANRPDPNLPMEETVRAMT [T14L], YVDVVFANRPDPNNPMEETVRAMT [T14N] is higher in protein stability index: 2.37 for the first, 3.02 for the second.

Going from YVDVVFANRPDPNAPMEETVRAMT [T14A] to YVDVVFANRPDPNIPMEETVRAMT [T14I], the protein stability index rises from 1.84 to 3.12.

First: YVDVVFANRPDPNDPMEETVRAMT [T14D]
Second: YVRVVFANRPDPNTPMEETVRAMT [D3R]
The protein stability index of the first is lower: 1.69 for the first, 2.28 for the second.

Going from YVVVVFANRPDPNTPMEETVRAMT [D3V] to YVLVVFANRPDPNTPMEETVRAMT [D3L], the protein stability index rises from 2.48 to 2.51.

Compared with YVEVVFANRPDPNTPMEETVRAMT [D3E], YVPVVFANRPDPNTPMEETVRAMT [D3P] is lower in protein stability index: 1.87 for the first, 1.2 for the second.

Compared with YVDSVFANRPDPNTPMEETVRAMT [V4S], YVDMVFANRPDPNTPMEETVRAMT [V4M] is higher in protein stability index: 1.67 for the first, 2.87 for the second.

First: YVDEVFANRPDPNTPMEETVRAMT [V4E]
Second: YVDLVFANRPDPNTPMEETVRAMT [V4L]
The protein stability index of the first is lower: 2.07 for the first, 2.66 for the second.

Compared with YVDCVFANRPDPNTPMEETVRAMT [V4C], YVDPVFANRPDPNTPMEETVRAMT [V4P] is higher in protein stability index: 1.51 for the first, 1.87 for the second.

First: YVDNVFANRPDPNTPMEETVRAMT [V4N]
Second: YVDTVFANRPDPNTPMEETVRAMT [V4T]
The protein stability index of the first is lower: 1.64 for the first, 2.12 for the second.

First: YVDYVFANRPDPNTPMEETVRAMT [V4Y]
Second: YVDFVFANRPDPNTPMEETVRAMT [V4F]
The protein stability index of the first is lower: 1.85 for the first, 2.3 for the second.

Going from YVDKVFANRPDPNTPMEETVRAMT [V4K] to YVDIVFANRPDPNTPMEETVRAMT [V4I], the protein stability index falls from 2.31 to 1.83.

Going from YVDAVFANRPDPNTPMEETVRAMT [V4A] to YVDVVFANRPDPNTKMEETVRAMT [P15K], the protein stability index rises from 1.98 to 2.72.

Going from YVDVVFANRPDPNTYMEETVRAMT [P15Y] to YVDVVFANRPDPNTAMEETVRAMT [P15A], the protein stability index rises from 2.21 to 2.34.

First: YVDVVFANRPDPNTWMEETVRAMT [P15W]
Second: YVDVVFANRPDPNTLMEETVRAMT [P15L]
The protein stability index of the first is lower: 1.78 for the first, 2.44 for the second.

Going from YVDVVFANRPDPNTNMEETVRAMT [P15N] to YVDVVFANRPDPNTEMEETVRAMT [P15E], the protein stability index falls from 1.97 to 1.73.

Going from YVDVVFANRPDPNTRMEETVRAMT [P15R] to YVDVVFANRPDPNTSMEETVRAMT [P15S], the protein stability index rises from 2.52 to 2.69.

Going from YVDVVFANRPDPNTPMEETVRQMT [A22Q] to YVDVVFANRPDPNTPMEETVRLMT [A22L], the protein stability index rises from 1.85 to 1.98.

Going from YVDVVFANRPDPNTPMEETVREMT [A22E] to YVDVVFANRPDPNTPMEETVRSMT [A22S], the protein stability index rises from 1.6 to 1.76.

Going from YVDVVFANRPDPNTPMEETVRIMT [A22I] to YVDVVFANRPDPNTPMEETVRNMT [A22N], the protein stability index rises from 1.72 to 2.13.

Compared with YVDVVFANDPDPNTPMEETVRAMT [R9D], YVDVVFANIPDPNTPMEETVRAMT [R9I] is lower in protein stability index: 2.71 for the first, 2.07 for the second.

Going from YVDVVFANVPDPNTPMEETVRAMT [R9V] to YVDVVFANNPDPNTPMEETVRAMT [R9N], the protein stability index falls from 2.96 to 2.22.

First: YVDVVFANQPDPNTPMEETVRAMT [R9Q]
Second: YVDVVFANKPDPNTPMEETVRAMT [R9K]
The protein stability index of the first is higher: 1.98 for the first, 1.69 for the second.

Going from YVDVVFANRPDPNTPMEETVHAMT [R21H] to YVDVVFANRPDPNTPMEETVYAMT [R21Y], the protein stability index falls from 2.22 to 1.87.

Compared with YVDVVFANRPDPNTPMEETVLAMT [R21L], YVDVVFANRPDPNTPMEETVIAMT [R21I] is lower in protein stability index: 2.64 for the first, 2.15 for the second.
